The supplement of paper PMC9112550, “Optimization of the antimicrobial peptide Bac7 by deep mutational scanning” (BMC Biology, 2022)

system: Escherichia coli TOP10; assay: shrunken log2 fold change of peptide-encoding DNA abundance (4.5 h post-induction vs induction); higher = less antimicrobial activity (less host growth inhibition); settings: time post-induction: 4.5 h; library: site-saturation at positions 5, 18, 19, 20
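Also: peptides expressed intracellularly from a pBAD plasmid library in pooled LB shake-flask culture, induced with 0.3% L-arabinose, DNA abundance read by NGS, three biological replicates, DESeq2 with apeglm shrinkage.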

Sequence | shrunken log2 fold change
RRIRIRPPRLPRPRPRPIQIPRP | -0.0257
RRIRWRPPRLPRPRPRPEMAPRP | 1.14
RRIRTRPPRLPRPRPRPFAPPRP | 0.163
RRIRFRPPRLPRPRPRPSNNPRP | -0.702
RRIRHRPPRLPRPRPRPQDVPRP | 0.0527
RRIRCRPPRLPRPRPRPQVFPRP | -0.13
RRIRRRPPRLPRPRPRPQDEPRP | -0.0204
RRIRFRPPRLPRPRPRPCFMPRP | -0.213
RRIRKRPPRLPRPRPRPAAPPRP | 1.6
RRIRWRPPRLPRPRPRPRRMPRP | 0.215
RRIRCRPPRLPRPRPRPDHTPRP | -0.699
RRIRGRPPRLPRPRPRPIWDPRP | 0.474
RRIRKRPPRLPRPRPRPALTPRP | 0.622
RRIRVRPPRLPRPRPRPKCKPRP | -0.191
RRIRHRPPRLPRPRPRPLYVPRP | -0.272
RRIRIRPPRLPRPRPRPFLFPRP | -0.586
RRIRKRPPRLPRPRPRPFQVPRP | 0.0377
RRIRWRPPRLPRPRPRPYLNPRP | -0.777
RRIRHRPPRLPRPRPRPLKVPRP | 0.0138
RRIRERPPRLPRPRPRPPDVPRP | -0.108
RRIRARPPRLPRPRPRPMHAPRP | 0.409
RRIRNRPPRLPRPRPRPMAHPRP | -0.0456
RRIRNRPPRLPRPRPRPFYKPRP | -0.575
RRIRERPPRLPRPRPRPVQGPRP | 0.166
RRIRKRPPRLPRPRPRPATYPRP | 0.0782

Sequence | shrunken log2 fold change
RRIRFRPPRLPRPRPRPWPCPRP | -0.229
RRIRDRPPRLPRPRPRPLKFPRP | 0.0649
RRIRHRPPRLPRPRPRPWSVPRP | -0.125
RRIRCRPPRLPRPRPRPIPRPRP | 0.73
RRIRNRPPRLPRPRPRPFVGPRP | -0.182
RRIRSRPPRLPRPRPRPQLAPRP | 0.0789
RRIRKRPPRLPRPRPRPIVPPRP | 0.269
RRIRARPPRLPRPRPRPFLTPRP | 0.085
RRIRVRPPRLPRPRPRPNVAPRP | 0.177
RRIRKRPPRLPRPRPRPTNSPRP | -0.241
RRIRYRPPRLPRPRPRPECPPRP | -0.00973
RRIRQRPPRLPRPRPRPLIRPRP | -0.966
RRIRRRPPRLPRPRPRPGQNPRP | 0.203
RRIRKRPPRLPRPRPRPHVCPRP | -0.00289
RRIRPRPPRLPRPRPRPEDQPRP | 0.106
RRIRWRPPRLPRPRPRPNVGPRP | -0.129
RRIRCRPPRLPRPRPRPNRMPRP | 2.23
RRIRKRPPRLPRPRPRPIISPRP | -0.132
RRIRARPPRLPRPRPRPQQRPRP | 0.199
RRIRHRPPRLPRPRPRPAEPPRP | 0.19
RRIRKRPPRLPRPRPRPRTCPRP | -0.202
RRIRMRPPRLPRPRPRPMWSPRP | -0.027
RRIRWRPPRLPRPRPRPIYCPRP | -0.581
RRIRARPPRLPRPRPRPLTSPRP | 0.209
RRIRGRPPRLPRPRPRPVPEPRP | 1.98

Sequence | shrunken log2 fold change
RRIRTRPPRLPRPRPRPWNTPRP | -0.0118
RRIRRRPPRLPRPRPRPEKAPRP | 0.0304
RRIRGRPPRLPRPRPRPSNYPRP | -0.0111
RRIRKRPPRLPRPRPRPMTRPRP | 0.872
RRIRHRPPRLPRPRPRPVGYPRP | 0.00996
RRIRIRPPRLPRPRPRPVRIPRP | 0.154
RRIRARPPRLPRPRPRPMHHPRP | 0.112
RRIRQRPPRLPRPRPRPHDKPRP | -0.773
RRIRHRPPRLPRPRPRPLYNPRP | -0.459
RRIRQRPPRLPRPRPRPVHNPRP | -0.121
RRIRLRPPRLPRPRPRPRFWPRP | 0.486
RRIRPRPPRLPRPRPRPYSMPRP | -1.43
RRIRERPPRLPRPRPRPVAFPRP | -0.0756
RRIRERPPRLPRPRPRPHCPPRP | -0.0673
RRIRCRPPRLPRPRPRPCVEPRP | -0.0788
RRIRLRPPRLPRPRPRPYVDPRP | -0.0393
RRIRGRPPRLPRPRPRPFSPPRP | 0.0723
RRIRCRPPRLPRPRPRPWFNPRP | -1.12
RRIRDRPPRLPRPRPRPWFHPRP | -0.00884
RRIRDRPPRLPRPRPRPLHKPRP | 0.0824
RRIRHRPPRLPRPRPRPFSLPRP | -0.277
RRIRWRPPRLPRPRPRPLELPRP | 0.106
RRIRGRPPRLPRPRPRPIYYPRP | -0.197
RRIRHRPPRLPRPRPRPCPPPRP | -0.845
RRIRNRPPRLPRPRPRPRCHPRP | -0.572

Sequence | shrunken log2 fold change
RRIRTRPPRLPRPRPRPFHDPRP | 0.0356
RRIRTRPPRLPRPRPRPVDQPRP | -0.123
RRIRSRPPRLPRPRPRPPTSPRP | 0.0457
RRIRIRPPRLPRPRPRPCNYPRP | -0.103
RRIRMRPPRLPRPRPRPSPQPRP | 0.716
RRIRDRPPRLPRPRPRPQHDPRP | -0.249
RRIRGRPPRLPRPRPRPRRDPRP | 0.424
RRIRNRPPRLPRPRPRPNENPRP | 0.215
RRIRQRPPRLPRPRPRPFGLPRP | -0.131
RRIRVRPPRLPRPRPRPVVKPRP | -0.214
RRIRYRPPRLPRPRPRPWCMPRP | -0.383
RRIRRRPPRLPRPRPRPRWTPRP | 0.453
RRIRLRPPRLPRPRPRPRKTPRP | 0.0104
RRIRGRPPRLPRPRPRPGLKPRP | 0.725
RRIRYRPPRLPRPRPRPVCHPRP | -0.583
RRIRIRPPRLPRPRPRPSQYPRP | -0.555
RRIRVRPPRLPRPRPRPTIRPRP | 0.0315
RRIRWRPPRLPRPRPRPDLYPRP | 0.0586
RRIRLRPPRLPRPRPRPILEPRP | -0.186
RRIRDRPPRLPRPRPRPIFPPRP | 0.19
RRIRRRPPRLPRPRPRPMKFPRP | 0.212
RRIRERPPRLPRPRPRPSVPPRP | -0.235
RRIRCRPPRLPRPRPRPMIHPRP | -0.466
RRIRHRPPRLPRPRPRPRSCPRP | -0.0982
RRIRTRPPRLPRPRPRPYEVPRP | -0.0168

Sequence | shrunken log2 fold change
RRIRQRPPRLPRPRPRPERFPRP | -0.0441
RRIRIRPPRLPRPRPRPMVLPRP | -0.071
RRIRKRPPRLPRPRPRPLQYPRP | -0.0563
RRIRGRPPRLPRPRPRPENRPRP | 0.19
RRIRLRPPRLPRPRPRPASCPRP | 0.117
RRIRARPPRLPRPRPRPRPTPRP | 0.867
RRIRVRPPRLPRPRPRPHLMPRP | -0.36
RRIRIRPPRLPRPRPRPYSCPRP | -0.0992
RRIRSRPPRLPRPRPRPQKVPRP | -0.203
RRIRIRPPRLPRPRPRPMTIPRP | -1.16
RRIRRRPPRLPRPRPRPAKNPRP | 0.279
RRIRARPPRLPRPRPRPPKHPRP | 0.472
RRIRVRPPRLPRPRPRPTMPPRP | 0.24
RRIRCRPPRLPRPRPRPSCYPRP | -0.295
RRIRIRPPRLPRPRPRPRPPPRP | 0.635
RRIRLRPPRLPRPRPRPCRLPRP | -0.286
RRIRNRPPRLPRPRPRPNEIPRP | 0.145
RRIRDRPPRLPRPRPRPHDLPRP | -0.0733
RRIRNRPPRLPRPRPRPCFHPRP | -0.503
RRIRIRPPRLPRPRPRPCNNPRP | -0.457
RRIRQRPPRLPRPRPRPNWPPRP | 0.192
RRIRYRPPRLPRPRPRPVGEPRP | 0.207
RRIRCRPPRLPRPRPRPYPYPRP | -0.248
RRIRARPPRLPRPRPRPTPNPRP | 0.602
RRIRMRPPRLPRPRPRPDSEPRP | 1.82

Sequence | shrunken log2 fold change
RRIRLRPPRLPRPRPRPFINPRP | -0.572
RRIRGRPPRLPRPRPRPCFHPRP | -0.011
RRIRHRPPRLPRPRPRPPTLPRP | 0.246
RRIRQRPPRLPRPRPRPGKIPRP | -0.0789
RRIRHRPPRLPRPRPRPCVLPRP | -0.14
RRIRLRPPRLPRPRPRPYSEPRP | -1.71
RRIRFRPPRLPRPRPRPYPMPRP | -0.119
RRIRCRPPRLPRPRPRPQPEPRP | 0.13
RRIRGRPPRLPRPRPRPEFAPRP | 1.22
RRIRVRPPRLPRPRPRPRAPPRP | 0.831
RRIRGRPPRLPRPRPRPRVNPRP | 0.394
RRIRERPPRLPRPRPRPHQSPRP | -0.0234
RRIRERPPRLPRPRPRPYPFPRP | -0.52
RRIRWRPPRLPRPRPRPFFNPRP | -0.267
RRIRDRPPRLPRPRPRPSGSPRP | -0.00469
RRIRGRPPRLPRPRPRPGPNPRP | 0.941
RRIRDRPPRLPRPRPRPKLPPRP | 0.0818
RRIRRRPPRLPRPRPRPNQWPRP | 0.128
RRIRRRPPRLPRPRPRPWLMPRP | -0.185
RRIRQRPPRLPRPRPRPANFPRP | 0.0982
RRIRKRPPRLPRPRPRPNSYPRP | 0.141
RRIRIRPPRLPRPRPRPCMAPRP | -0.335
RRIRSRPPRLPRPRPRPPGFPRP | 0.467
RRIRLRPPRLPRPRPRPVWEPRP | 0.0556
RRIRHRPPRLPRPRPRPFKLPRP | -0.196
